The target of one assay is T1, SUVH1 (Arabidopsis thaliana, UniProt Q9FF80 1-670).
T1 sequence (looked up): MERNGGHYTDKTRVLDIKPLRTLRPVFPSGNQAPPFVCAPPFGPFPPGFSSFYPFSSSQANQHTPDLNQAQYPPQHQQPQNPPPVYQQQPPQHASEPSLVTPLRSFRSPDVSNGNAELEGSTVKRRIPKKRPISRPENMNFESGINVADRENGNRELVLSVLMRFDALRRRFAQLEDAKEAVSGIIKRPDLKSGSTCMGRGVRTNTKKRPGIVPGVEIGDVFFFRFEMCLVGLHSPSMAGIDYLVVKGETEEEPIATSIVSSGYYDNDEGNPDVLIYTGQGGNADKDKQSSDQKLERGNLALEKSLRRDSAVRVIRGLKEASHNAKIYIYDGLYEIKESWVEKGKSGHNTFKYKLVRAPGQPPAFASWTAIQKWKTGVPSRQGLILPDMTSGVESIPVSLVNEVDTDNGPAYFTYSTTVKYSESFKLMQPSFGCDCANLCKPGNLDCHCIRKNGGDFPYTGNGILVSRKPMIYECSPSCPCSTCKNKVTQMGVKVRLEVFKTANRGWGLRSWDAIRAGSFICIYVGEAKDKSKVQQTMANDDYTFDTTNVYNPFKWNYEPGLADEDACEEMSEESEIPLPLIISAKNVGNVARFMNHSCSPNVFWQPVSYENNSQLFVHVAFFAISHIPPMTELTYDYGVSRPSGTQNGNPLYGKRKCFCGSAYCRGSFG
Nature of the assay: pull-down.

The next assay has as its target T2, GST-SUVH3 (Arabidopsis thaliana, UniProt Q9C5P4 1-669).
T2 sequence (looked up): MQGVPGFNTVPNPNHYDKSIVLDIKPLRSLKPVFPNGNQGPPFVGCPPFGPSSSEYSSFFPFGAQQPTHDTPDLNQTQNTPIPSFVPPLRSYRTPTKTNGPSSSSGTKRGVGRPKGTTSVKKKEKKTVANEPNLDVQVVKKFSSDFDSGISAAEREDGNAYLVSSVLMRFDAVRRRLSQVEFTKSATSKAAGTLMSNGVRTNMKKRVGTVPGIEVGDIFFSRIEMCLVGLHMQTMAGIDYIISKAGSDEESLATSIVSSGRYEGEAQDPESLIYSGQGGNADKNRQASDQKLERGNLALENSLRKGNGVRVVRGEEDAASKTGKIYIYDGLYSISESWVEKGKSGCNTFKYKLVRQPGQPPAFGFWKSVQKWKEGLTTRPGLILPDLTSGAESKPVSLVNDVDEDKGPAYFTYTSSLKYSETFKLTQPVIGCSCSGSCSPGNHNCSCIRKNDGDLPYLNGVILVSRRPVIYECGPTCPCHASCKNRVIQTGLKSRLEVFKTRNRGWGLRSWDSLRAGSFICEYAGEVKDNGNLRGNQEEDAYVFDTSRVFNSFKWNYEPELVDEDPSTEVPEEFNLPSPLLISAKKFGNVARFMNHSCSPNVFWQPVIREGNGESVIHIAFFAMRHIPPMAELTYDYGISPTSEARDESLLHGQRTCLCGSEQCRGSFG
Nature of the assay: pull-down.

B1: His-LEC2 (natural protein, Arabidopsis thaliana, UniProt Q1PFR7 1-363, looked up)
chain: MDNFLPFPSSNANSVQELSMDPNNNRSHFTTVPTYDHHQAQPHHFLPPFSYPVEQMAAVMNPQPVYLSECYPQIPVTQTGSEFGSLVGNPCLWQERGGFLDPRMTKMARINRKNAMMRSRNNSSPNSSPSELVDSKRQLMMLNLKNNVQISDKKDSYQQSTFDNKKLRVLCEKELKNSDVGSLGRIVLPKRDAEANLPKLSDKEGIVVQMRDVFSMQSWSFKYKFWSNNKSRMYVLENTGEFVKQNGAEIGDFLTIYEDESKNLYFAMNGNSGKQNEGRENESRERNHYEEAMLDYIPRDEEEASIAMLIGNLNDHYPIPNDLMDLTTDLQHHQATSSSMPPEDHAYVGSSDDQVSFNDFEWW
As for B1, the binding result with SUVH1 and with GST-SUVH3 was “binds” in each case.

Values taken from article PMC12056068 (Nature Communications, 2025).
